Earlier results, collected in article PMC3218054, “Characterisation of the Interaction of the C-Terminus of the Dopamine D2 Receptor with Neuronal Calcium Sensor-1” (PLoS ONE, 2011).
Entries after “also recorded” stand apart in the source; their conditions may differ.

Tested on: NCS-1
Conditions: D3 receptor
From the text: Ultimately, it would be important to understand how NCS-1 interacts with the intact receptor. We, therefore, constructed a model of the NCS-1-D3 receptor complex using the AIR derived from the D2SR peptide-NCS-1 chemical mapping data, and taking into consideration that many of the hydrophobic residues at the C-terminus of D3 receptor are involved in intramolecular interactions with helix I of the receptor [45]. HADDOCK docking produ ... || Biophysical analysis of NCS-1 was consistent with the protein being monomeric in the presence or absence of Ca ^2+.

B1: D3 receptor: dopamine D3 receptor (PDB Accession 3PBL), docked onto NCS-1 (protein, UniProt P35462 1-400, looked up)
D(3) dopamine receptor: MASLSQLSGHLNYTCGAENSTGASQARPHAYYALSYCALILAIVFGNGLVCMAVLKERALQTTTNYLVVSLAVADLLVATLVMPWVVYLEVTGGVWNFSRICCDVFVTLDVMMCTASILNLCAISIDRYTAVVMPVHYQHGTGQSSCRRVALMITAVWVLAFAVSCPLLFGFNTTGDPTVCSISNPDFVIYSSVVSFYLPFGVTVLVYARIYVVLKQRRRKRILTRQNSQCNSVRPGFPQQTLSPDPAHLELKRYYSICQDTALGGPGFQERGGELKREEKTRNSLSPTIAPKLSLEVRKLSNGRLSTSLKLGPLQPRGVPLREKKATQMVAIVLGAFIVCWLPFFLTHVLNTHCQTCHVSPELYSATTWLGYVNSALNPVIYTTFNIEFRKAFLKILSC
In the case of B1, the “ability to bind NCS-1” value is listed as “shown to bind to the dopamine D3 receptor and to regulate its internalisation; also recorded: can also bind to NCS-1”.
